These results are taken from US20250018014A1, “METHOD FOR TREATING AND/OR PREVENTING REGNASE-1-RELATED DISEASE” (OSAKA UNIVERSITY, priority 2018, published 2025).

Holding throughout (assay): cell-based or functional assay
In test [1] the target is T1, C-terminal domain-deleted human Regnase-1 (amino acids 1 to 546) with N-terminal FLAG tag and C-terminal BirA … (human, UniProt Q5D1E8 1-546).
T1 sequence: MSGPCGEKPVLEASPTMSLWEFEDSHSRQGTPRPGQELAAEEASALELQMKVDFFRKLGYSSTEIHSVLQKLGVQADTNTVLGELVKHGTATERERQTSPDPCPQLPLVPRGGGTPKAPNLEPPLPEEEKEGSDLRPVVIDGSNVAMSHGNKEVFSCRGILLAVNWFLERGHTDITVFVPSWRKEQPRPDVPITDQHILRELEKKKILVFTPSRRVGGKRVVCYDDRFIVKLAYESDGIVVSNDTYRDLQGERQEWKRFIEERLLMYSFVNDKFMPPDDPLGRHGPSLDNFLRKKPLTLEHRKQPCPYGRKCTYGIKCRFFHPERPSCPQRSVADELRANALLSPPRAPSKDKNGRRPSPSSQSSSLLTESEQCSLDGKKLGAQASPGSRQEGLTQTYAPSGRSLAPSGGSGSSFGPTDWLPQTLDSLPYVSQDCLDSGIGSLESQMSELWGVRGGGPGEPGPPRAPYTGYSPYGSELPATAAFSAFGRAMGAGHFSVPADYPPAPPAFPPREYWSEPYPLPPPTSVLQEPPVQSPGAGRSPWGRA

The target in test [2] is T2, C-terminal human Regnase-1 (amino acids 301 to 599) with N-terminal FLAG tag and C-terminal BirA recognition … (human, UniProt Q5D1E8 301-599).
T2 sequence: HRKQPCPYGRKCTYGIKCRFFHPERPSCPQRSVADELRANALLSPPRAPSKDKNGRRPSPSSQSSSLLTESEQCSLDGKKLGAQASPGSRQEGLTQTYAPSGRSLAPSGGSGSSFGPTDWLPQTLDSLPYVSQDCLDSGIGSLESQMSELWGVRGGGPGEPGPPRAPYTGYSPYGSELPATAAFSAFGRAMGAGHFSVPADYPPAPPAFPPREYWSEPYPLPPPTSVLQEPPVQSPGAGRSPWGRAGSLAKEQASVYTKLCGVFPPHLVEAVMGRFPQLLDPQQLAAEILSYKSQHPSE

Test [3] concerns the target T3, full-length human Regnase-1 with a FLAG tag on the N-terminal side and a biotin ligase BirA recognition … (human, UniProt Q5D1E8 1-599, biotinylated at the BirA recognition sequence when required).
T3 sequence: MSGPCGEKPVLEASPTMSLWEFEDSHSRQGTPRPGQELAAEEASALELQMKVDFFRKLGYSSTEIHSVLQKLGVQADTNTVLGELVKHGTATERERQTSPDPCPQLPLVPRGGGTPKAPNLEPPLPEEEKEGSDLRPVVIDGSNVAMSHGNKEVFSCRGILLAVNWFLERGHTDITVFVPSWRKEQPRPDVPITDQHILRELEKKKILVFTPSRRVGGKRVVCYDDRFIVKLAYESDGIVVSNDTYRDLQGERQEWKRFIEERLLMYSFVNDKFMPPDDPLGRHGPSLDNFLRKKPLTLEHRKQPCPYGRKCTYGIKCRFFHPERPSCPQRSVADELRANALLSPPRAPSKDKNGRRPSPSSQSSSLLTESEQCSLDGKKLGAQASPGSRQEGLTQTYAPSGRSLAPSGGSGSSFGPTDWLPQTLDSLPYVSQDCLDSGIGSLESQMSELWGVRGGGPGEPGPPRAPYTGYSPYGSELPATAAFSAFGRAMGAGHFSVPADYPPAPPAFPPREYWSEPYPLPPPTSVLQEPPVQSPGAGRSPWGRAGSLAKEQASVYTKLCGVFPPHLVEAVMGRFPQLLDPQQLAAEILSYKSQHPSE

Test [4] deals with T1, C-terminal domain-deleted human …. This is another data set of the same source.
Test [5] deals with T2, C-terminal human Regnase-1 (amino acids …). This is another data set of the same source.
Test [6] concerns the target T3, full-length human Regnase-1 with a FLAG …. This is another data set of the same source.

B1: PP15 (peptide)
peptide: XNSWYINIWGHD
HELM: PEPTIDE1{[meA].N.S.W.Y.I.N.I.W.G.H.D.[C1CCN([*:1])C1]}$PEPTIDE1,PEPTIDE1,1:R1-12:R3$$$V2.0
SMILES: CC[C@H](C)[C@@H]1NC(=O)[C@H](CC(N)=O)NC(=O)[C@H]([C@@H](C)CC)NC(=O)[C@H](Cc2ccc(O)cc2)NC(=O)[C@H](Cc2c[nH]c3ccccc23)NC(=O)[C@H](CO)NC(=O)[C@H](CC(N)=O)NC(=O)[C@H](C)N(C)C(=O)C[C@@H](C(=O)N2CCCC2)NC(=O)[C@H](Cc2c[nH]cn2)NC(=O)CNC(=O)[C@H](Cc2c[nH]c3ccccc23)NC1=O
Consider B1, for which the “50% inhibition concentration, Regnase-1 phosphorylation by IKKβ (AlphaScreen)” value was determined as 31 µM in test [1], 22 µM in test [2] and 5.6 µM in test [3]. The figures for the “50% inhibition concentration, Regnase-1 phosphorylation by TBK1 (AlphaScreen)” value in test [4], in test [5] and in test [6] were 9.5 µM, 17.4 µM and 8.5 µM, respectively.

B2: PP11 (peptide)
peptide: XKFAQFRWIYPD
HELM: PEPTIDE1{[meA].K.F.A.Q.F.R.W.I.Y.P.D.[C1CCN([*:1])C1]}$PEPTIDE1,PEPTIDE1,1:R1-12:R3$$$V2.0
SMILES: CC[C@H](C)[C@@H]1NC(=O)[C@H](Cc2c[nH]c3ccccc23)NC(=O)[C@H](CCCNC(=N)N)NC(=O)[C@H](Cc2ccccc2)NC(=O)[C@H](CCC(N)=O)NC(=O)[C@H](C)NC(=O)[C@H](Cc2ccccc2)NC(=O)[C@H](CCCCN)NC(=O)[C@H](C)N(C)C(=O)C[C@@H](C(=O)N2CCCC2)NC(=O)[C@@H]2CCCN2C(=O)[C@H](Cc2ccc(O)cc2)NC1=O
B2: the “50% inhibition concentration, Regnase-1 phosphorylation by IKKβ (AlphaScreen)” value in test [1] is over 62.1 µM; in test [2], over 62.1 µM; in test [3] it was 22.3 µM. Also, the “50% inhibition concentration, Regnase-1 phosphorylation by TBK1 (AlphaScreen)” value in test [4] was 55.6 µM; in test [5] it was over 62.1 µM; in test [6] it was 29.1 µM.

B3: PP14 (peptide)
peptide: XRFGVWSWIYPD
HELM: PEPTIDE1{[meA].R.F.G.V.W.S.W.I.Y.P.D.[C1CCN([*:1])C1]}$PEPTIDE1,PEPTIDE1,1:R1-12:R3$$$V2.0
SMILES: CC[C@H](C)[C@@H]1NC(=O)[C@H](Cc2c[nH]c3ccccc23)NC(=O)[C@H](CO)NC(=O)[C@H](Cc2c[nH]c3ccccc23)NC(=O)[C@H](C(C)C)NC(=O)CNC(=O)[C@H](Cc2ccccc2)NC(=O)[C@H](CCCNC(=N)N)NC(=O)[C@H](C)N(C)C(=O)C[C@@H](C(=O)N2CCCC2)NC(=O)[C@@H]2CCCN2C(=O)[C@H](Cc2ccc(O)cc2)NC1=O
In the case of B3, the entries for the “50% inhibition concentration, Regnase-1 phosphorylation by IKKβ (AlphaScreen)” value in test [1], in test [2] and in test [3] were 9 µM, 6.5 µM and 1.6 µM, respectively. Further, the “50% inhibition concentration, Regnase-1 phosphorylation by TBK1 (AlphaScreen)” value in test [4] came to 5.2 µM; in test [5], 6.8 µM; in test [6], 3.1 µM.

B4: PP12 (peptide)
peptide: XRYAVYQWIYPD
HELM: PEPTIDE1{[meA].R.Y.A.V.Y.Q.W.I.Y.P.D.[C1CCN([*:1])C1]}$PEPTIDE1,PEPTIDE1,1:R1-12:R3$$$V2.0
SMILES: CC[C@H](C)[C@@H]1NC(=O)[C@H](Cc2c[nH]c3ccccc23)NC(=O)[C@H](CCC(N)=O)NC(=O)[C@H](Cc2ccc(O)cc2)NC(=O)[C@H](C(C)C)NC(=O)[C@H](C)NC(=O)[C@H](Cc2ccc(O)cc2)NC(=O)[C@H](CCCNC(=N)N)NC(=O)[C@H](C)N(C)C(=O)C[C@@H](C(=O)N2CCCC2)NC(=O)[C@@H]2CCCN2C(=O)[C@H](Cc2ccc(O)cc2)NC1=O
Take B4: the “50% inhibition concentration, Regnase-1 phosphorylation by IKKβ (AlphaScreen)” value is 27 µM in test [1], 20.7 µM in test [2] and 6.8 µM in test [3]. Moreover, the “50% inhibition concentration, Regnase-1 phosphorylation by TBK1 (AlphaScreen)” value in test [4] worked out at 22.5 µM; in test [5], 19.6 µM; in test [6], 12.7 µM.

B5: PP16 (peptide)
peptide: XNFSNSWYNIWD
HELM: PEPTIDE1{[meA].N.F.S.N.S.W.Y.N.I.W.D.[C1CCN([*:1])C1]}$PEPTIDE1,PEPTIDE1,1:R1-12:R3$$$V2.0
SMILES: CC[C@H](C)[C@@H]1NC(=O)[C@H](CC(N)=O)NC(=O)[C@H](Cc2ccc(O)cc2)NC(=O)[C@H](Cc2c[nH]c3ccccc23)NC(=O)[C@H](CO)NC(=O)[C@H](CC(N)=O)NC(=O)[C@H](CO)NC(=O)[C@H](Cc2ccccc2)NC(=O)[C@H](CC(N)=O)NC(=O)[C@H](C)N(C)C(=O)C[C@@H](C(=O)N2CCCC2)NC(=O)[C@H](Cc2c[nH]c3ccccc23)NC1=O
For the molecule B5, the results for the “50% inhibition concentration, Regnase-1 phosphorylation by IKKβ (AlphaScreen)” value in test [1], in test [2] and in test [3] were 30.8 µM, 42.2 µM and 20.6 µM, respectively. For the same molecule, the entries for the “50% inhibition concentration, Regnase-1 phosphorylation by TBK1 (AlphaScreen)” value in test [4], in test [5] and in test [6] were 38.1 µM, over 62.1 µM and 52.4 µM, respectively.

B6: PP13 (peptide)
peptide: XRFRQWKWVYPD
HELM: PEPTIDE1{[meA].R.F.R.Q.W.K.W.V.Y.P.D.[C1CCN([*:1])C1]}$PEPTIDE1,PEPTIDE1,1:R1-12:R3$$$V2.0
SMILES: CC(C)[C@@H]1NC(=O)[C@H](Cc2c[nH]c3ccccc23)NC(=O)[C@H](CCCCN)NC(=O)[C@H](Cc2c[nH]c3ccccc23)NC(=O)[C@H](CCC(N)=O)NC(=O)[C@H](CCCNC(=N)N)NC(=O)[C@H](Cc2ccccc2)NC(=O)[C@H](CCCNC(=N)N)NC(=O)[C@H](C)N(C)C(=O)C[C@@H](C(=O)N2CCCC2)NC(=O)[C@@H]2CCCN2C(=O)[C@H](Cc2ccc(O)cc2)NC1=O
For B6, the “50% inhibition concentration, Regnase-1 phosphorylation by IKKβ (AlphaScreen)” value in test [1] was determined as 43.2 µM; in test [2] it was 23.2 µM; in test [3] it was 3.6 µM. The “50% inhibition concentration, Regnase-1 phosphorylation by TBK1 (AlphaScreen)” value worked out at 17.7 µM in test [4], 18 µM in test [5] and 8.4 µM in test [6].
